Results taken from paper PMC7187728 (Biochemistry, 2018).

How the values were obtained:
[1] = target: T1, AaOSBS (Alicyclobacillus acidocaldarius, UniProt Z9M799VK71); assay: inhibition of OSBS activity, SHCHC loss at […] nm; assay type: biochemical
T1 sequence (Z9M799VK71 4-380): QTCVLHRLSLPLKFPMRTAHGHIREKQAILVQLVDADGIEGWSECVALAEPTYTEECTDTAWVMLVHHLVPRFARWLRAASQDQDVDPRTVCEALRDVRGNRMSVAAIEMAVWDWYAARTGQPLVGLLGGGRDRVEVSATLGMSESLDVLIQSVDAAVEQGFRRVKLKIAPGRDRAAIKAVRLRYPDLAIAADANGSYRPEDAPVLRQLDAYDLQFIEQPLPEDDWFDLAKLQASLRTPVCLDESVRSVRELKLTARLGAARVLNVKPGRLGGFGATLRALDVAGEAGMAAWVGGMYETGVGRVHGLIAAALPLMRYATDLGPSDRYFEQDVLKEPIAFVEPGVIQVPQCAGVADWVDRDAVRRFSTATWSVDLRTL

[2] = test system: O=C(O)CCC(=O)C1=CC=C[C@@H](O)[C@@H]1C(=O)O; assay: purified protein; assay type: biochemical, Alicyclobacillus acidocaldarius; details: 50 mM Tris pH 8.0, 0.1 mM MnCl2, 25 °C
[3] = substrate: O=C(O)CCC(=O)C1=CC=C[C@@H](O)[C@@H]1C(=O)O; assay: purified protein; assay type: biochemical, Amycolatopsis mediterranei; details: 50 mM Tris pH 8.0, 0.1 mM MnCl2, 25 °C
[4] = substrate: O=C(O)CCC(=O)N[C@@H](C(=O)O)c1ccccc1; assay: purified protein; assay type: biochemical, Amycolatopsis mediterranei; details: 200 mM Tris pH 8.0, 0.1 mM MnCl2
[5] = substrate: O=C(O)CCC(=O)C1=CC=C[C@@H](O)[C@@H]1C(=O)O; assay: purified protein; assay type: biochemical, Roseiflexus castenholzii; details: 50 mM Tris pH 8.0, 0.1 mM MnCl2, 25 °C
[6] = substrate: O=C(O)CCC(=O)N[C@@H](C(=O)O)c1ccccc1; assay: purified protein; assay type: biochemical, Roseiflexus castenholzii; details: 200 mM Tris pH 8.0, 0.1 mM MnCl2

Question: How did the Ki [1] turn out when `O=C(O)CCC(=O)N[C@@H](C(=O)O)c1ccccc1` [D-NSPG, N-succinyl-D-phenylglycine] was run?
Answer: 3.6 ± 0.4 mM

Question: `O=C(O)CCC(=O)N[C@H](C(=O)O)c1ccccc1` [L-NSPG, N-succinyl-L-phenylglycine] was tested. Which Ki [1] did it give?
Answer: 2.6 ± 0.4 mM

Question: Which Km [2] does the source give for “AaOSBS (Alicyclobacillus acidocaldarius)” here?
Answer: 118 ± 18 µM

Question: And the kcat [2]?
Answer: 64 ± 3 s⁻¹

Question: What about the kcat/Km [2] of the same molecule?
Answer: 540000 M⁻¹ s⁻¹

B1: AmedNSAR (Amycolatopsis mediterranei S699) (protein)
chain: MKLTGVELLRVRMPLVAPFRTSFGTQAERELLLLRAVTSEGEGWGECGAMAGPLYSAEYIDGVEHVLQAFLVPALLAAGDLTAHKVAPLLAKFKGHRMAKAALEMAVLDAELRAHGLSFGTALGSTSDSVPCGVSVGIMDSIPQLVDVVGGYLDAGYLRIKLKIEPGWDVEPVRAVRERFGDDILLQVDANTAYTLSDVPQLQRLDPFGLLLIEQPLEEEDVLGHAELARHLRTPICLDETVVSAASAAAAIRLGACRIVNIKPSRVGGYLEARRVHDVCAAHGIPVWCGGMLETGLGRAANVALASLPGFTLPGDTSASDRFYRTDITEPFVLEAGRLPVPSGPGLGVTPIPERLAEVTTAKSWLA
Question: For B1, which Km [3] is on record?
Answer: 415 ± 39 µM

Question: And the kcat [3]?
Answer: 242 ± 11 s⁻¹

Question: And the kcat/Km [3]?
Answer: 580000 M⁻¹ s⁻¹

Question: And the Km [4]?
Answer: 2800 ± 550 µM

Question: And the kcat [4]?
Answer: 74 ± 7 s⁻¹

Question: And the kcat/Km [4]?
Answer: 26000 M⁻¹ s⁻¹

B2: RcNSAR/OSBS (Roseiflexus castenholzii DSM 13941) (protein)
chain: MKIESITLHHIDMPLVAPFETSFGRETHRPCILIEMRADGLTGWGECVAGAGPWYAYETIGTAWHIISDFLAPMIVGQEITEPIGIVERFASVRGHPMARAAVEAAFWDLYAQARGVSLARLIGATRDRVTVGVSVGIELTLEAQLASIERFVAAGYARIKLKIKPGWDVAVVRAVRERWPDIALQVDANSAYTPDDAPIFRELDEMNLLLIEQPLHHDDIVDHARLQAQISTPICLDESIHSPEHARWALDIDACRVINIKIGRVGGLTAARQIHDLCAERGVPVWCGGMLETNVGRAVNLALAALPNFALPGDISASARYYHRDIAAPDFVLNDDSTITVPDTPGTGVAVLPERLRDVQVREVIIGKG
Question: Which Km [5] does the source give for B2 here?
Answer: 155 ± 22 µM

Question: What about the kcat [5] of the same molecule?
Answer: 38 ± 3 s⁻¹

Question: What about the kcat/Km [5] of the same molecule?
Answer: 250000 M⁻¹ s⁻¹

Question: What about the Km [6] of the same molecule?
Answer: 1800 ± 230 µM

Question: And the kcat [6]?
Answer: 15 ± 4 s⁻¹

Question: What about the kcat/Km [6] of the same molecule?
Answer: 8300 M⁻¹ s⁻¹
